Experimental findings from patent US20050037969A1 (ARBOR VITA, published 2005) are described below.

Ends that are not written are not given here. * marks the point of attachment. Biotin = O=C1N[C@H]2[C@H](CS[C@H]2CCCCC(=O)*)N1

T1: GST-DLG5 (p-dlg) PDZ domain fusion protein (Human, UniProt Q8TDM6 1343-1583)
T1 construct: also called Human discs large protein p-dlg; not shown: glutathione S-transferase encoded by vector pGEX-3X (Pharmacia)
T1 sequence: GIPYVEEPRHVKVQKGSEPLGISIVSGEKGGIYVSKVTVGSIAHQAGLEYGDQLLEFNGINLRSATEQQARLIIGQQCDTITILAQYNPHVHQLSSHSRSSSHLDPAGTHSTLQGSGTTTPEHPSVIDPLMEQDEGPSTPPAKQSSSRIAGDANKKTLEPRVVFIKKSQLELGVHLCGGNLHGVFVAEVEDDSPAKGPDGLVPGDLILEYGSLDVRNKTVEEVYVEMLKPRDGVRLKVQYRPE

T2: GST-DVL1 PDZ domain fusion protein (human, UniProt O14640 247-339)
T2 construct: also called human dishevelled segment polarity protein homolog; not shown: glutathione S-transferase encoded by vector pGEX-3X (Pharmacia)
T2 sequence: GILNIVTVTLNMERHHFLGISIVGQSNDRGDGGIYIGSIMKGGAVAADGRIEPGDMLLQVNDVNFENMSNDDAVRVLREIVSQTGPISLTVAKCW

T3: GEF PDZ-GST fusion protein (Homo sapiens (Human), UniProt Q8TEU7 293-400)
T3 construct: The label GEF is not explained in the excerpts
T3 sequence: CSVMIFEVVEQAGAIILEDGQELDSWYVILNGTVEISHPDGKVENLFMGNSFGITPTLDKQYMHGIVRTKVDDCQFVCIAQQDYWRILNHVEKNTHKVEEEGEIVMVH

T4: GST-TAX-IP43 PDZ domain fusion protein (human, UniProt Q13884 109-180)
T4 construct: also called TAX43; not shown: glutathione S-transferase encoded by vector pGEX-3X (Pharmacia)
T4 sequence: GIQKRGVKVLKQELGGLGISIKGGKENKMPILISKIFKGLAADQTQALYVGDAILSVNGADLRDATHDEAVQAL

T5: GST-AF6 PDZ domain fusion protein (Homo sapiens (Human), UniProt P55196 1001-1093)
T5 construct: also called af-6 protein; not shown: glutathione S-transferase encoded by vector pGEX-3X (Pharmacia)
T5 sequence: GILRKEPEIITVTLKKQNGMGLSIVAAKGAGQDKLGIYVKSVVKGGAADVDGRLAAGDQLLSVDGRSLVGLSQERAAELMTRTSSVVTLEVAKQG

T6: GST-KIAA0303 PDZ domain fusion protein (Homo sapiens (Human), UniProt O15021 1138-1228)
T6 construct: also called K303; not shown: glutathione S-transferase encoded by vector pGEX-3X (Pharmacia)
T6 sequence: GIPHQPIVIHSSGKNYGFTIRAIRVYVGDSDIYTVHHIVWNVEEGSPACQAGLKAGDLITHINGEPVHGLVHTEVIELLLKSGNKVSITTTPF

T7: TAX-IP2L PDZ-GST fusion protein (Homo sapiens (Human), UniProt Q8TF64 107-197)
T7 construct: Order of GST and PDZ part and limits not seen in the excerpts
T7 sequence: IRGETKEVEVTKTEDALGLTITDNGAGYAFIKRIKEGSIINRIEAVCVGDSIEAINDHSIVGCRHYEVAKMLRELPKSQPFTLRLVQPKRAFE

T8: K858 PDZ-GST fusion protein (Homo sapiens (Human), UniProt Q8WWI1 1038-1131)
T8 construct: Order of GST and PDZ part and limits not seen in the excerpts
T8 sequence: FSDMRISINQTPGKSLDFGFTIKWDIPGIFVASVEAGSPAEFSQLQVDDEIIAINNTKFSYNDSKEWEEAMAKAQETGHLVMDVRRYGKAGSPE

T9: SP short PDZ-GST fusion protein (Homo sapiens (Human), UniProt O43464 350-435)
T9 construct: The label SP short is not explained in the excerpts
T9 sequence: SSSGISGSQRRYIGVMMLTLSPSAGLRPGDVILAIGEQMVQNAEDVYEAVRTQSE

T10: ConEn PDZ-GST fusion protein (Homo sapiens (Human), UniProt Q969H4 193-287)
T10 construct: The label ConEn is not explained in the excerpts
T10 sequence: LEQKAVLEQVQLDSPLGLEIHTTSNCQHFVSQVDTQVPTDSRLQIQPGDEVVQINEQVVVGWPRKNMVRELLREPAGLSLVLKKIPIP

T11: GST-prIL16 fusion protein (PDZ domains 1-2) (Homo sapiens (Human), UniProt Q14005 1111-1324)
T11 construct: also called putative interleukin 16 precursor; not shown: glutathione S-transferase encoded by vector pGEX-3X (Pharmacia)
T11 sequence: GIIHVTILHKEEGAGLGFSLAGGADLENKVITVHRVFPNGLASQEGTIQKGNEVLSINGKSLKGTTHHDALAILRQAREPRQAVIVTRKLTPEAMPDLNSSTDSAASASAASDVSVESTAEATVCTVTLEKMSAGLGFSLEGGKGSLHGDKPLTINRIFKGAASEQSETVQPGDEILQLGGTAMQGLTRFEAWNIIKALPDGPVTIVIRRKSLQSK

T12: GST-TAX-IP2 PDZ domain fusion protein (human, UniProt O14908 129-216)
T12 construct: also called TAX-1P2; TAX2; not shown: glutathione S-transferase encoded by vector pGEX-3X (Pharmacia)
T12 chain: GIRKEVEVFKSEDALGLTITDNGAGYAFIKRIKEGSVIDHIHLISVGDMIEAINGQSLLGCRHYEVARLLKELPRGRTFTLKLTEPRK

T13: TAX-IP33 PDZ-GST fusion protein (Homo sapiens (Human), UniProt O14910 103-193)
T13 construct: Order of GST and PDZ part and limits not seen in the excerpts
T13 sequence: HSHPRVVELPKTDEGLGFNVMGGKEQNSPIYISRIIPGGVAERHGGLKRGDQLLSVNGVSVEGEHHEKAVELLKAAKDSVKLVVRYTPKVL

B1: CC CKR-4 C-terminal peptide AA44L (peptide)
peptide: Biotin-DTPSSSYTQSTMDHDLHDAL
notes: Only the last four residues are seen in the excerpts

T14 sequence (Q14CM0 72-159 limits assumed): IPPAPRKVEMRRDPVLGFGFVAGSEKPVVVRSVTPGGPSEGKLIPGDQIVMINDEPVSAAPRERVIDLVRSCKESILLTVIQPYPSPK

The target in the first test is T1, GST-DLG5 (p-dlg) PDZ domain fusion …. In words: A/G assays.
As for B1, the binding result was “no binding”.

Regarding Biotin-DLGNMEENKKLEENNHKTEA (also called CD166 (CD6L)) [CD166 C-terminal peptide AA20L, biotinylated], the binding result was “no binding”.

With Biotin-YSATYSELEDPGEMSPPIDL (also called FceRlb; FcεRβI) [FceRIb C-terminal peptide AA25L, biotinylated], the binding result is given as “no binding”.

In a further test the target is T2, GST-DVL1 PDZ domain fusion protein. In words: A/G assays.
Turning to B1, the binding result is reported as “no binding”.

Regarding Biotin-DLGNMEENKKLEENNHKTEA (also called CD166 (CD6L)) [CD166 C-terminal peptide AA20L, biotinylated], the binding result is recorded as “no binding”.

As for Biotin-YSATYSELEDPGEMSPPIDL (also called FceRlb; FcεRβI) [FceRIb C-terminal peptide AA25L, biotinylated], the binding result is “no binding”.

A further test addresses T3, GEF PDZ-GST fusion protein. In words: A/G assays.
For B1, the binding result is given as “no binding”.

Biotin-DLGNMEENKKLEENNHKTEA (also called CD166 (CD6L)) [CD166 C-terminal peptide AA20L, biotinylated]: the binding result is “no binding”.

Biotin-YSATYSELEDPGEMSPPIDL (also called FceRlb; FcεRβI) [FceRIb C-terminal peptide AA25L, biotinylated]: the binding result is on record as “no binding”.

A further test addresses T4, GST-TAX-IP43 PDZ domain fusion protein. Put plainly: A/G assays.
B1: the binding result is reported as “no binding”.

For the molecule Biotin-DLGNMEENKKLEENNHKTEA (also called CD166 (CD6L)) [CD166 C-terminal peptide AA20L, biotinylated], the binding result is “no binding”.

Consider Biotin-YSATYSELEDPGEMSPPIDL (also called FceRlb; FcεRβI) [FceRIb C-terminal peptide AA25L, biotinylated], for which the binding result is on record as “no binding”.

The next test deals with T5, GST-AF6 PDZ domain fusion protein. Put plainly: A/G assays.
Consider B1, for which the binding result is reported as “no binding”.

Biotin-DLGNMEENKKLEENNHKTEA (also called CD166 (CD6L)) [CD166 C-terminal peptide AA20L, biotinylated]: the binding result is reported as “no binding”.

For Biotin-YSATYSELEDPGEMSPPIDL (also called FceRlb; FcεRβI) [FceRIb C-terminal peptide AA25L, biotinylated], the binding result was “no binding”.

A further test has as its target T14, K316 PDZ-GST fusion protein (Homo sapiens (Human), UniProt Q14CM0 72-159).
T14 construct: Order of GST and PDZ part and limits not seen in the excerpts
In words: A/G assays.
Turning to B1, the binding result is “no binding”.

On to Biotin-DLGNMEENKKLEENNHKTEA (also called CD166 (CD6L)) [CD166 C-terminal peptide AA20L, biotinylated], for which the binding result is listed as “no binding”.

As for Biotin-YSATYSELEDPGEMSPPIDL (also called FceRlb; FcεRβI) [FceRIb C-terminal peptide AA25L, biotinylated], the binding result is “no binding”.

The next test has as its target T6, GST-KIAA0303 PDZ domain fusion protein. Put plainly: A/G assays.
In the case of B1, the binding result is given as “no binding”.

In the case of Biotin-DLGNMEENKKLEENNHKTEA (also called CD166 (CD6L)) [CD166 C-terminal peptide AA20L, biotinylated], the binding result was “no binding”.

In the case of Biotin-YSATYSELEDPGEMSPPIDL (also called FceRlb; FcεRβI) [FceRIb C-terminal peptide AA25L, biotinylated], the binding result is reported as “no binding”.

The next test addresses T7, TAX-IP2L PDZ-GST fusion protein. In words: A/G assays.
In the case of B1, the binding result is on record as “no binding”.

As for Biotin-DLGNMEENKKLEENNHKTEA (also called CD166 (CD6L)) [CD166 C-terminal peptide AA20L, biotinylated], the binding result was “no binding”.

On to Biotin-YSATYSELEDPGEMSPPIDL (also called FceRlb; FcεRβI) [FceRIb C-terminal peptide AA25L, biotinylated], for which the binding result was “no binding”.

In a further test the target is T8, K858 PDZ-GST fusion protein. In words: A/G assays.
As to B1, the binding result is “no binding”.

For Biotin-DLGNMEENKKLEENNHKTEA (also called CD166 (CD6L)) [CD166 C-terminal peptide AA20L, biotinylated], the binding result is on record as “no binding”.

As for Biotin-YSATYSELEDPGEMSPPIDL (also called FceRlb; FcεRβI) [FceRIb C-terminal peptide AA25L, biotinylated], the binding result is reported as “no binding”.

The target in another test is T9, SP short PDZ-GST fusion protein. In words: A/G assays.
Turning to B1, the binding result is recorded as “no binding”.

Biotin-DLGNMEENKKLEENNHKTEA (also called CD166 (CD6L)) [CD166 C-terminal peptide AA20L, biotinylated]: the binding result is reported as “no binding”.

Regarding Biotin-YSATYSELEDPGEMSPPIDL (also called FceRlb; FcεRβI) [FceRIb C-terminal peptide AA25L, biotinylated], the binding result is given as “no binding”.

For the next test, the target named is T10, ConEn PDZ-GST fusion protein. In words: A/G assays.
Take B1: the binding result was “no binding”.

Turning to Biotin-DLGNMEENKKLEENNHKTEA (also called CD166 (CD6L)) [CD166 C-terminal peptide AA20L, biotinylated], the binding result is reported as “no binding”.

Turning to Biotin-YSATYSELEDPGEMSPPIDL (also called FceRlb; FcεRβI) [FceRIb C-terminal peptide AA25L, biotinylated], the binding result is recorded as “no binding”.

The target of another test is T11, GST-prIL16 fusion protein (PDZ domains …). In words: A/G assays.
Turning to B1, the binding result is given as “no binding”.

Take Biotin-DLGNMEENKKLEENNHKTEA (also called CD166 (CD6L)) [CD166 C-terminal peptide AA20L, biotinylated]: the binding result is listed as “no binding”.

Regarding Biotin-YSATYSELEDPGEMSPPIDL (also called FceRlb; FcεRβI) [FceRIb C-terminal peptide AA25L, biotinylated], the binding result is “no binding”.

The target in a further test is T15, GST-TIAM1 PDZ domain fusion protein (Homo sapiens (Human), UniProt Q13009 845-931).
T15 construct: also called TLAM1; T-lymphoma invasion and metastasis inducing protein 1; not shown: glutathione S-transferase encoded by vector pGEX-3X (Pharmacia)
T15 sequence (Q13009 other isoform, or with tags, fused parts or gaps): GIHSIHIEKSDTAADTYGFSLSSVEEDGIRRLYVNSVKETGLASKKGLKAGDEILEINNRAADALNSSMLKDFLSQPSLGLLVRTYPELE
In words: A/G assays.
For the molecule B1, the binding result was “no binding”.

On to Biotin-DLGNMEENKKLEENNHKTEA (also called CD166 (CD6L)) [CD166 C-terminal peptide AA20L, biotinylated], for which the binding result was “no binding”.

Turning to Biotin-YSATYSELEDPGEMSPPIDL (also called FceRlb; FcεRβI) [FceRIb C-terminal peptide AA25L, biotinylated], the binding result is on record as “no binding”.

The target of another test is T16, PICK1 PDZ-GST fusion protein (Bos taurus (Bovine), UniProt Q2T9M1 17-105).
T16 construct: Order of GST and PDZ part and limits not seen in the excerpts
T16 sequence (Q2T9M1 other isoform, or with tags, fused parts or gaps limits assumed): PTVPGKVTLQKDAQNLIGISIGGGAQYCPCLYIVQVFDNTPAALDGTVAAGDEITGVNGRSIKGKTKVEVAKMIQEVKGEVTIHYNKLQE
Put plainly: A/G assays.
Regarding B1, the binding result was “no binding”.

As for Biotin-DLGNMEENKKLEENNHKTEA (also called CD166 (CD6L)) [CD166 C-terminal peptide AA20L, biotinylated], the binding result is recorded as “no binding”.

For Biotin-YSATYSELEDPGEMSPPIDL (also called FceRlb; FcεRβI) [FceRIb C-terminal peptide AA25L, biotinylated], the binding result is recorded as “no binding”.

The next test addresses T12, GST-TAX-IP2 PDZ domain fusion protein. Put plainly: A/G assays.
B1: the binding result is reported as “no binding”.

Regarding Biotin-DLGNMEENKKLEENNHKTEA (also called CD166 (CD6L)) [CD166 C-terminal peptide AA20L, biotinylated], the binding result is “no binding”.

As for Biotin-YSATYSELEDPGEMSPPIDL (also called FceRlb; FcεRβI) [FceRIb C-terminal peptide AA25L, biotinylated], the binding result is listed as “no binding”.

A further test deals with T13, TAX-IP33 PDZ-GST fusion protein. Put plainly: A/G assays.
As for B1, the binding result was “no binding”.

Turning to Biotin-DLGNMEENKKLEENNHKTEA (also called CD166 (CD6L)) [CD166 C-terminal peptide AA20L, biotinylated], the binding result is “no binding”.

As for Biotin-YSATYSELEDPGEMSPPIDL (also called FceRlb; FcεRβI) [FceRIb C-terminal peptide AA25L, biotinylated], the binding result was “no binding”.
